For the data set, the system named is N=C(N)NCCC[C@H](NC(=O)OCc1ccccc1)C(=O)N[C@@H](CCCNC(=N)N)C(=O)Nc1ccc([N+](=O)[O-])cc1. Description: purified protein. Particulars: 20 mM HEPES, 100 μg enzyme per assay; revised conditions, unlabelled recombinant protein.

Results on one substance are retold here after paper PMC1266349, “Nonnatural amino acid incorporation into the methionine 214 position of the metzincin Pseudomonas aeruginosa alkaline protease” (BMC Biochemistry, 2005).

As a reminder, the Km is the substrate concentration at which the rate is half of its maximum. As usually defined, the kcat is the number of substrate molecules converted per active site and unit of time at saturation. As for “AprA (alkaline protease from Pseudomonas aeruginosa), mature full-length (Pseudomonas aeruginosa PAO1)”, the Michaelis constant (Km) turned out to be 15.4 ± 0.9 µM and the kcat stood at 0.0095 ± 0.00033 s⁻¹.
